Key:
[1] = molecular target: H5 HA (Influenza A virus H5, assay strain not …, UniProt A5A5L7); assay: ELISA + BLI; conditions: both partners purified
[2] = molecular target: H7 A/Anhui/1/2013 HA (Influenza A virus A/Anhui/1/2013 (H7N9), UniProt A0A024E3P0); assay: BLI; […], dissociation 5 min; 1% BSA in PBS; 30°C; […]; conditions: both partners purified

B1: 43_S0008 (antibody, V domains shown)
VH: QVQLVQSGAEVKKPGSSVKVSCKASGGTFRTFGISWVRQAPGQGLEWMGWIIPIIGTPNYAQKFQGRVIITADESSNTAYMELNSLKSEDTAVYYCAKEGRALLRYFDWLPLDAFDIWGQGTMVTVSS
VL: DIVLTQTPLSLPVSLGDQASISCRSSQSLVHSDGNTYLHWYLQKPGQSPKLLIYKVSNRFSGVPDRFSGSGSGTDFTLKISRVEAEDLGVYFCSQSTHVPPLTFGAGTKLELK
notes: also called mAb 43_S0008; IGHV1-69 + IGHD3-9 mAb 43_S0008; source: Expi293 cells, purified (protein A)
[1]
  binding result: binds
[2]
  binding result: binds
